For orientation: Kd means a measure of binding affinity in units of concentration. One may read the koff as the first-order rate constant of dissociation. Usually kon stands for the rate constant with which the complex forms.

Test [1] addresses T1, EXT017 (Foxp3-7) peptide/HLA-A*02:01 complex, recombinant (human).
T1 construct: The BLI and SPR paragraphs only say 'EXT017 peptide/HLA-A*02:01 complex'; also called EXT017 peptide/HLA-A*02:01 complex; biotinylated single chain Foxp3p/HLA-A0201 complex
Kind of test: SPR.

Test [2] has as its target T1, EXT017 (Foxp3-7) peptide/HLA-A*02:01 …. The test is described as follows: SPR; printed under the head 'ka [1/Ms]': the heads of c3 and c4 are evidently interchanged. (In general: SPR reads the build-up and loss of mass on a sensor chip optically.)
For test [3] the target is unchanged. The test is described as follows: SPR; printed under the head 'kd [1/s]': the heads of c3 and c4 are evidently interchanged (0.005167/1.12E+07 = 0.46 nM).
The target is the same in test [4]. The test is described as follows: SPR; printed under the head 'kd [1/s]': the heads of c3 and c4 are evidently interchanged (0.01222/5.97E+07 = 0.205 nM).
Test [5] deals with T2, HLA-A*02:01 on T2 cells alone (no peptide added) (human).
T2 construct: TAP-deficient T2 cells without pulsed peptide; negative control target, and the HLA molecule whose stabilisation by peptides is read in the T2 stabilization assay; also called HLA-A*02 molecule; HLA-A2 molecule
Kind of test: flow cytometry, phage on T2 without peptide. (In general: In flow cytometry, cells or beads pass a laser one at a time.)

The target in test [6] is T2, HLA-A*02:01 on T2 cells alone (no …). Kind of test: flow cytometry, phage on T2 without peptide; secondary only 100, unstained 99.5.
In test [7] the target is T3, Foxp3-7 peptide/HLA-A*02:01 complex on the cell surface (human).
T3 construct: also called Foxp3-7/HLA-A2 complex
Kind of test: flow cytometry, phage on T2 + Foxp3-7 peptide; secondary only 133, unstained 103.

Another test deals with T4, T2+EW (Homo sapiens, UniProt A*02:01).
T4 construct: on the surface of T2 cells; irrelevant control peptide; also called EW peptide/HLA-A*02:01 complex on T2 cells; T2 pulsed with EW peptide
Kind of test: flow cytometry, phage on T2 + EW peptide; secondary only 113, unstained 94.7.

The target in test [8] is T3, Foxp3-7 peptide/HLA-A*02:01 complex on …. Kind of test: flow cytometry, phage on T2 + Foxp3-7 peptide; secondary only 104, unstained 81.7.
In test [9] the target is T5, R3 (RHAMM-R3) peptide/HLA-A*02:01 complex on T2 cells (human).
T5 construct: Control target of the phage staining of T2 cells; also called T2 cells pulsed with R3 peptide; RHAMM 3 (R3)
The test is described as follows: flow cytometry, phage on T2 + R3 peptide (as the table names the samples); secondary only 109, unstained 80.9.

The target in test [10] is T2, HLA-A*02:01 on T2 cells alone (no …). The test is described as follows: flow cytometry, phage on T2 without peptide. The source holds these as a separate data set.
Test [11] has the same target. The test is described as follows: flow cytometry, phage on T2 without peptide; secondary only 125, unstained 99.8.
Test [12] addresses T5, R3 (RHAMM-R3) peptide/HLA-A*02:01 …. Kind of test: flow cytometry, phage on T2 + R3 peptide; secondary only 118, unstained 91.1.
The target of test [13] is T2, HLA-A*02:01 on T2 cells alone (no …). The test is described as follows: flow cytometry, phage on T2 cells, no peptide.
For test [14], the target named is T3, Foxp3-7 peptide/HLA-A*02:01 complex on …. The test is described as follows: flow cytometry, phage on peptide-loaded T2 cells.
Test [15] addresses T6, 017-mut9 peptide (…)/HLA-A*02:01 complex on T2 cells (human).
T6 construct: Alanine mutant at position 9
Kind of test: flow cytometry, phage on peptide-loaded T2 cells.

For test [16], the target named is T7, 017-mut1 peptide (…)/HLA-A*02:01 complex on T2 cells (human).
T7 construct: Alanine mutant of Foxp3-7 at position 1, pulsed onto T2 cells; also called EXT017-mut1
The test is described as follows: flow cytometry, phage on peptide-loaded T2 cells.

For test [17], the target named is T8, 017-mut2 peptide (…)/HLA-A*02:01 complex on T2 cells (human).
T8 construct: Alanine mutant at position 2, the anchor position; the peptide may load poorly onto HLA-A2; also called EXT017-mut2
The test is described as follows: flow cytometry, phage on peptide-loaded T2 cells.

The target of test [18] is T9, 017-mut3 peptide (…)/HLA-A*02:01 complex on T2 cells (human).
T9 construct: Alanine mutant at position 3
The test is described as follows: flow cytometry, phage on peptide-loaded T2 cells.

The target of test [19] is T10, 017-mut4 peptide (…)/HLA-A*02:01 complex on T2 cells (human).
T10 construct: Alanine mutant at position 4
Kind of test: flow cytometry, phage on peptide-loaded T2 cells.

Test [20] addresses T11, 017-mut5 peptide (…)/HLA-A*02:01 complex on T2 cells (human).
T11 construct: Alanine mutant at position 5
Kind of test: flow cytometry, phage on peptide-loaded T2 cells.

The target in test [21] is T12, 017-mut7 peptide (…)/HLA-A*02:01 complex on T2 cells (human).
T12 construct: Alanine mutant at position 7
The test is described as follows: flow cytometry, phage on peptide-loaded T2 cells.

Test [22] addresses T13, 017-mut8 peptide (…)/HLA-A*02:01 complex on T2 cells (human).
T13 construct: Alanine mutant at position 8; also called TLI-A8
Kind of test: flow cytometry, phage on peptide-loaded T2 cells.

Read-outs that look alike come from different tables or passages of the source.

B1: EXT017-32 mouse IgG1 (antibody, V domains shown)
VH: EVQLVESGGGVVQPGRSLRLSCAASGFTFNNHAMHWVRQAPGKGLEWVAVISFDGDDKFYADSVKGRFTISRDNSRNTLFLQMNNLRPEDTAVYYCSRDPYHFASGSYSYFDYWGQGTLVTVSS
VL: QSVLTQPPSVSVAPGKTARITCGGNNIGSKSVHWYQQKPGQAPVLVIYYDSDRPSGIPERFSGSNSGNTATLTISRVEAGDEADYYCQVWDSSSDHYVFGTGTKVTVLG
notes: Mouse IgG1 format of clone #32 made by Eureka Therapeutics; conjugated to APC for flow cytometry of Tregs; also called EXT017-32 mIgG; EXT017-32 mIgG1
For B1, the Kd in test [1] amounted to 0.462 nM. In addition, in test [2], the koff was found to be 0.00517 s⁻¹. Moreover, the kon in [3] amounted to 1.12e+07 M⁻¹ s⁻¹.

B2: EXT017-32 human IgG1 (antibody, V domains shown)
VH: B1 VH
VL: B1 VL
notes: Full-length human IgG1 with matching human lambda or kappa light chain constant region; Fc-enhanced (afucosylated); also called EXT017-32 hIgG; EXT017-32-hIgG1
As for B2, the Kd in test [1] was 0.205 nM. Moreover, in test [2], the koff was determined as 0.0122 s⁻¹. Further, the kon in [4] is 5.97e+07 M⁻¹ s⁻¹.

B3: Clone #5 (scFv)
scFv (VL-linker-VH-His/HA tag): QSALTQPPSASGSPGQSVTISCTGTSSDVGGYNYVSWYQQHPGKAPKLMIYEVSKRPSGVPDRFSGSKSGNTASLTVSGLQAEDEADYYCSSYAGSNTHVVFGGGTKLTVLGSRGGGGSGGGGSGGGGSLEMAEVQLVQSGAEVKKPGASVKISCKASRYTFTNYYIHWVRQAPGQGLEWMGIINPSGGSTTYPQNFQGRLTMTRDTSTSTVYMELSSLRSEDTAMYYCARGWSGYDPGDFWGQGTLVTVSSTSGQAGQHHHHHHGAYPYDVPDYAS
notes: also called EXT017-5; EXT017-5 scFv phage clone
As for B3, the binding result in test [5] is “no binding”. Besides, the “Median:FITC-A” value was 142 in test [6]; 2050 in test [7]; 149 with T2+EW; 2460 in [8]; 129 in [9].

B4: (FoxP4)_#4 (scFv)
scFv (VL-linker-VH-His/HA tag): QSVLTQPPSVSGAPGQRVTISCTGSNSNIGADFDVHWYQQLPGTAPKLLIYGNNNRPSGVPDRFSGSKSDTSASLAITGLQAEDEADYYCQSYDISLNGYVFGTGTKVTVLGSRGGGGSGGGGSGGGGSLEMAQVQLQQWGAGLLKPSETLSLTCAVSGGSFSDYYWSWIRQPPGKGLEWIGEITHTGSTNYNPSLKSRVTISVDTSKNHFSLNLTSVTAADTAVYYCARSNGFYYDTWGQGTLVTVSSTSGQAGQHHHHHHGAYPYDVPDYAS
notes: also called EXT018-4; EXT018-04 scFv phage clone
On to B4, for which the binding result in test [10] is “no binding”. Further, the “Median:FITC-A” value in test [11] was found to be 155; in [12], 148.

B5: Clone #10 (scFv)
scFv (VL-linker-VH-His/HA tag): QAVLTQPPSASGTPGQRVTISCSGGSSNIGVNPVNWYQQLPGTAPKLLIFANYQRPSGVPDRFSGSKSGTSASLAISGLQSDDEAHYYCSTWDDSLNAWLFGGGTKLTVLGSRGGGGSGGGGSGGGGSLEMAEVQLVQSGAEVKKPGDSLRISCQGSGYSFTSYYISWVRQMPGKGLEWMGNIDPSDSYTNYSPSFQGHVTMSVDKSISTAYLQWSSLKASDIAIYYCVRHGFSNSPRLWFDTWGQGTLVTVSSTSGQAGQHHHHHHGAYPYDVPDYAS
notes: also called EXT017-10; EXT017-10 scFv phage clone
As to B5, in test [5], the binding result was “no binding”. The “Median:FITC-A” value stood at 149 in test [6], 1130 in test [7] and 151 with T2+EW.

B6: (FoxP4)_#2 (scFv)
scFv (VL-linker-VH-His/HA tag): QSVVTQPPSVSGAPGQRVTISCTGSSSNIGAGFDVHWYQQLPGTAPKLLIYGNSNRPSGVPDRFSGSKSATSASLAITGLQAEDEADYYCQSYDSSLSGVVFGGGTKLTVLGSRGGGGSGGGGSGGGGSLEMAQVQLVQSGAEVKKPGSSVKVSCKTSGGTFSSYAISWVRQAPGQGLEWMGGIIPIFGTANYAQRFQGRVTITADESTNTVYMELSSLRSEDTAVYYCARESWYLDEWGQGTLVTVSSTSGQAGQHHHHHHGAYPYDVPDYAS
notes: also called EXT018-2; EXT018-02 scFv phage clone
For the molecule B6, in [10], the binding result was “no binding”. Besides, the entries for the “Median:FITC-A” value in test [11] and in [12] were 157 and 147, respectively.

B7: EXT017-20 scFv phage clone (scFv)
scFv: QSVVTQPPSVSAAPGQKVTISCSGSSSNIGAGYDVHWYQQLPGTAPKLLIYGNSNRPSGVPDRFSGSKSGTSASLAITGLQAEDEADYYCQSYDSSLSGSVFGGGTKLTVLGSRGGGGSGGGGSGGGGSLEMAEVQLVQSGAEVKKPGSSVKVSCKASGGTFSSYAISWVRQAPGQGLEWMGGIIPIFGTANYAQKFQGRVTITADESTSTAYMELSSLRSEDTAVYYCARYSYKYGELDTWGQGTLVTVSSTSGQAGQHHHHHHGAYPYDVPDYAS
notes: full-length scFv with His+HA tags; also called EXT017-20 phage
As for B7, the MFI in [13] was 91.3; in test [14] it was 17100; in test [15] it was 95.6; in [16], 4070; in test [17] it was 96; in test [18], 96.4. Further, the MFI amounted to 93.7 in test [19], 95 in test [20], 94.9 in test [21] and 11100 in [22]. In addition, the binding result in test [5] is reported as “no binding”. The “Median:FITC-A” value stood at 136 in test [6]; 1220 in test [7]; 139 with T2+EW; 2300 in [8]; 128 in [9].

B8: (FoxP4)_#5 (scFv)
scFv (VL-linker-VH-His/HA tag): QSVLTQPPSVSVAPGKTAKITCGGDNIGSKTVHWYQQKPGQAPALLIYYDSDRPSGIPERFSGSNSGNTATLSISRVEAGDEAGYFCQVWDGSSDHVIFGGGTKLTVLGSRGGGGSGGGGSGGGGSLEMAQMQLVQSGGGVVQPGRSLRLSCAASGFTFSSYAMHWVRQAPGKGLEWVAVISYDGSNKYYADSVKGRFTISRDNSKNTLYLQMNSLRAEDTAVYYCARDRHDYVMDVWGKGTTVTVSSTSGQAGQHHHHHHGAYPYDVPDYAS
notes: also called EXT018-5; EXT018-05 scFv phage clone
As to B8, in test [10], the binding result is given as “no binding”. Besides, the results for the “Median:FITC-A” value in test [11] and in test [12] were 155 and 143, respectively.

The values above are taken from US20190284262A1 (Memorial Sloan Kettering, published 2019).
